{"source": "patent US20170008955A1", "about": "(CNJ, published 2017)", "binders": {"B1": {"name": "5E3KCDR3-Y91F (antibody, IgG1, V domains shown)", "VH": "QVQLQQSGPEVKKPGASVKISCKASGYIFTSYYIQWVIHAPGQGLEWIGWIYPGNVNTKYNEKFKGKATLTADKSSSTAYMELSSLTSEDTAVYFCARMDYEAHYWGQGTTVTVSS", "VL": "DIQMTQSPSSLSASVGDRVTITCRASQEISGYLTWLQQKPEGAIKRLIYAASTLDSGVPKRFSGSRSGSDYSLTISSLQPEDFATYNCLQFANYPRTFGGGTKLEIK", "notes": "hu5E3 IgG1 vector mutant"}, "B2": {"name": "5E3KCDR3-Y94F (antibody, IgG1, V domains shown)", "VH": "B1 VH", "VL": "B1 VL with F91Y, Y94F", "notes": "hu5E3 IgG1 vector mutant"}, "B3": {"name": "HuΔ5E3-IgG1 (KHA) (antibody, V domains shown)", "VH": "B1 VH with I38K", "VL": "B1 VL with F91Y", "notes": "human IgG1; also called huΔ5E3 KHA Mutation"}, "B4": {"name": "HuΔ5E3-IgG1 (IQR) (antibody, V domains shown)", "VH": "B1 VH with H39Q, A40R", "VL": "B1 VL with F91Y", "notes": "human IgG1; also called huΔ5E3 IQR Mutation"}, "B5": {"name": "HuΔ5E3-IgG1 (KQA) (antibody, V domains shown)", "VH": "B1 VH with I38K, H39Q", "VL": "B1 VL with F91Y", "notes": "human IgG1; also called huΔ5E3 KQA Mutation"}, "B6": {"name": "HuΔ5E3-IgG1 (IHR) (antibody, V domains shown)", "VH": "B1 VH with A40R", "VL": "B1 VL with F91Y", "notes": "human IgG1; also called huΔ5E3 IHR Mutation"}, "B7": {"name": "HuΔ5E3-IgG2 (KQR) (antibody, V domains shown)", "VH": "B1 VH with I38K, H39Q, A40R", "VL": "B1 VL with F91Y", "notes": "KQR framework 2 variant of hu5E3 on human IgG2"}, "B8": {"name": "HuΔ5E3-IgG4 (KQR) (antibody, V domains shown)", "VH": "B1 VH with I38K, H39Q, A40R", "VL": "B1 VL with F91Y", "notes": "KQR framework 2 variant of hu5E3 on human IgG4"}, "B9": {"name": "HuΔ5E3-IgG1 (KQR) (antibody, V domains shown)", "VH": "B1 VH with I38K, H39Q, A40R", "VL": "B1 VL with F91Y", "notes": "human IgG1; also called hu5E3 IgG1 KQR; huΔ5E3 KQR Mutation"}}, "note": "Where a chain is given by its changes, count along the chain named."}
{"target": "T1, cSNK:BSA conjugate (bovine, head-to-tail cyclized; conjugated to BSA carrier)", "T1 construct": "also called BSA-cSNK", "T1 sequence (P02769 25-607 limits assumed)": "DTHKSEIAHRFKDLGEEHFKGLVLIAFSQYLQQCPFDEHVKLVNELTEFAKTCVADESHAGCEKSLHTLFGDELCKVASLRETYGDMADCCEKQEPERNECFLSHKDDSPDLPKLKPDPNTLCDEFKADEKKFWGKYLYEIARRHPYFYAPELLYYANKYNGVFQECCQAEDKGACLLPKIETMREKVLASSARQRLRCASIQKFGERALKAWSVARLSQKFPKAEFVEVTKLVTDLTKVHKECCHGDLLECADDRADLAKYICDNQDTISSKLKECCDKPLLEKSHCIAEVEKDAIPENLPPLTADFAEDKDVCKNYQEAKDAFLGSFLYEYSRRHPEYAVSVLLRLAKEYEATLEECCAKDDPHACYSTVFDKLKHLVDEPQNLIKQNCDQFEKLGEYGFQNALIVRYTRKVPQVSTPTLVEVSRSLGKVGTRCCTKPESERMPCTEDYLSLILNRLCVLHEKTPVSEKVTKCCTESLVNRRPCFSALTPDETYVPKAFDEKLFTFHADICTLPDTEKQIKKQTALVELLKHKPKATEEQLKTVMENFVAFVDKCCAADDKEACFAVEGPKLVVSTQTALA", "assay": "BLI (Octet), compared to hu5E3"}
{"binder": "B1", "binding result": "no binding (tested: 100 nM)"}
{"binder": "B2", "binding result": "no binding (tested: 100 nM)"}
{"target": "T1, cSNK:BSA conjugate", "assay": "BLI (Octet), 1:1 model, BSA-cSNK", "description": "Biolayer interferometry (Octet Red92, ForteBio) was used to qualitatively/quantitatively assess the interactions between humanized 5E3 and Δ5E3 mAbs to the cSNK:BSA conjugate. […] MAbs were loaded onto sensors and then washed in PBST. Each sensor was associated with one of several cSNK:BSA standards (100 nM to 0 nM) and then washed in PBST. Data was processed statistically using ForteBio Data Analysis software to determine the strength of antigen-antibody binding (KD). For each mAb analyzed, a 1:1 model provided the “best fit”.", "units": {"Kd": "nM"}}
{"binder": "B3", "Kd": 1.52}
{"binder": "B4", "Kd": 1.26}
{"binder": "B5", "Kd": 1.28}
{"binder": "B6", "Kd": 1.43}
{"binder": "B7", "Kd": 0.226}
{"binder": "B8", "Kd": 1.04}
{"binder": "B9", "Kd": 1.88}
